Data set [1] deals with human cytomegalovirus. Put plainly: Antiviral activity against human cytomegalovirus, CPE-inhibition assay in primary HFF cells with real time PCR readout. The conditions noted are these: primary human foreskin fibroblast (HFF) cells; SI greater than 1 = active; FIGS. 1 and 2. The data set is classed as cell-based. How it is done: (§1) To evaluate the activity of the three tested RNases against human herpesviridae infections, the following quantitative PCR assay was used:
(§2) Solutions of the tested RNases were prepared in cell culture medium without use of dimethyl sulfoxide (“DMSO”). DMSO is unnecessary because the tested RNases are water-soluble.
Antiviral activity against herpes simplex virus-1, herpes simplex virus-2, and human cytomegalovirus was evaluated by cytopathic effect inhibition (“CPE-inhibition”) assays in primary human foreskin fibroblast (HFF) cells. Primary HFF cells were counted and 2.5×10^4 cells per well were seeded into 96-well plates in 100 it of minimal essential medium supplemented with 10% fetal bovine serum (“FBS”). The cells were then incubated for 24 hours at 37° C. in a 5% CO2 humidified incubator. Solutions of the tested RNases were added to triplicate wells to yield a final concentration of 10 μM, and diluted to yield concentrations of 2, 0.4, 0.08, 0.016, and 0.0032 μM. The plates were then incubated for 1 h and 100 μl of a virus suspension was added. […] Total DNA from the cultures was harvested and viral genome copy number was determined by real time PCR assays.
(§3) For all the assays, cytotoxicity was evaluated in the same cell line used to evaluate antiviral activity and was assessed by CellTiter-Glo assays.
In general terms: In qPCR the cycle at which signal appears reflects the starting amount.

The test system of data set [2] is roseolovirus-6A. Put plainly: Antiviral activity against roseolovirus-6A in HSB-2 cells, viral DNA by real time PCR. The following applies: SI greater than 1 = active, FIGS. 1 and 2. The format is cell-based, human. How it is done: as §1, §2
Antiviral activity against roseolovirus-6B was evaluated in Molt-3 cells. The tested RNases were diluted using methods used for the CPE-inhibition assay in RPMI 1640 medium (Roswell Park Memorial Institute) supplemented with 10% FBS, L-glutamine, penicillin and gentamicin. 2×10^4 Molt-3 cells were added to each well, and infected cells were added to achieve the desired multiplicity of infection and incubated at 37° C. for 4 days. The accumulation of viral DNA was determined by real time PCR assays. Antiviral activity against roseolovirus-6A was evaluated by similar procedures, but using HSB-2 cells.
as §3

We go through 1 molecule from patent publication US8518399B2, “Methods of treating infections originating from viruses in the herpesviridae family” (Tamir Biotechnology, Inc., priority 2010, dated 2013).

B1: ranpirnase (protein, UniProt P22069 1-104, looked up)
Protein P-30: QDWLTFQKKHITNTRDVDCDNIMSTNLFHCKDKNTFIYSRPEPVKAICKGIIASKNVLTTSEFYLSDCNVTSRPCKYKLKKSTNKFCVTCENQAPVHFVGVGSC
notes: An RNase, disclosed and claimed in U.S. Pat. No. 5,559,212
Turning to B1, the “activity against human cytomegalovirus (judged by SI = CC50/EC50)” value in data set [1] was “extraordinarily active”. Besides, the “activity against roseolovirus-6A (judged by SI = CC50/EC50)” value in data set [2] was “entirely inactive”.
